Data on two molecules can be found in publication doi:10.1101/2023.02.28.530553.

In one data set the target is T1, MBP-OsRFL (Oryza sativa L., UniProt Q0JAI1 1-389).
T1 sequence: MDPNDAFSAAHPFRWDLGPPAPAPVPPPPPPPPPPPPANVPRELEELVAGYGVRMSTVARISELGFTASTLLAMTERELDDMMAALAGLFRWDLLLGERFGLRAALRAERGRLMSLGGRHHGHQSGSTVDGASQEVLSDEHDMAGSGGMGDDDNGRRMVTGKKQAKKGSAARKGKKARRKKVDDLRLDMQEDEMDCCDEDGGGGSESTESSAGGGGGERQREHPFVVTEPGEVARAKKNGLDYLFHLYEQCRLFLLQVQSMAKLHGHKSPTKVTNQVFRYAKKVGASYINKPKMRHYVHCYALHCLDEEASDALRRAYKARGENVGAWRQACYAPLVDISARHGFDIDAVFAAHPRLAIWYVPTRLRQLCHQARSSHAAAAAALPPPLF
Description: EMSA.

The target in another data set is MBP-OsNLP3 (Oryza sativa L., UniProt Q5NB82 1-938). Description: EMSA.
Sequence of MBP-OsNLP3 (Q5NB82 whole entry): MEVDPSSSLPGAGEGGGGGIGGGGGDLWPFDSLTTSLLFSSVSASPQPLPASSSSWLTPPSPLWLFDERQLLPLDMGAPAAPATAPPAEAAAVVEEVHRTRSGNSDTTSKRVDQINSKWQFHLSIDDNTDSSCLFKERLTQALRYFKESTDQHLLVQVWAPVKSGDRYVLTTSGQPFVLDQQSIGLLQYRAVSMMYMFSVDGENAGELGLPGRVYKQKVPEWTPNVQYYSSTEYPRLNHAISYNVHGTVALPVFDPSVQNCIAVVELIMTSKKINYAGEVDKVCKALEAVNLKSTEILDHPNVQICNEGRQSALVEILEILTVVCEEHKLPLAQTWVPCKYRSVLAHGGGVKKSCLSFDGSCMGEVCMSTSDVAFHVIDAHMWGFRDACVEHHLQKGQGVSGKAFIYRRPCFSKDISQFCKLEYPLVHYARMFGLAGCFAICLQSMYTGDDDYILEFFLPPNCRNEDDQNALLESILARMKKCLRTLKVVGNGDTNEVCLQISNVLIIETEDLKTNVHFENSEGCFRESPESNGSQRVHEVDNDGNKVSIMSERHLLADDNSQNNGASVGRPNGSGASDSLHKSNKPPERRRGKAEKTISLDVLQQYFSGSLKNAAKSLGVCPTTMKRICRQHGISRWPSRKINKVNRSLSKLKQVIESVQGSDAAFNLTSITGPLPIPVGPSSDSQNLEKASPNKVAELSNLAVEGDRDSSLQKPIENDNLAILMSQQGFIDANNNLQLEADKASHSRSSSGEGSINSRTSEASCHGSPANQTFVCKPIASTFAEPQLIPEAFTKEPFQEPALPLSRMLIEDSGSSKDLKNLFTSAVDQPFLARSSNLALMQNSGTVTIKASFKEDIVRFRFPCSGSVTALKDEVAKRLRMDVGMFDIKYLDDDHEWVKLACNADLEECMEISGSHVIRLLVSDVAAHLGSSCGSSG

B1: OsMOC1 promoter probe (EMSA/OsMOC1) (dsDNA)
DNA 1: TGGTGTTACCACTGGCTTGATCA
DNA 2: TGATCAAGCCAGTGGTAACACCA
Consider B1, for which the binding result with MBP-OsRFL is on record as “binds”.

B2: OsRFL promoter NRE probe (EMSA/OsRFL-3) (dsDNA)
DNA 1: TAATACTGTTGTTTGATACTAATGAGTCAAGTTG
DNA 2: CAACTTGACTCATTAGTATCAAACAACAGTATTA
For B2, the binding result with MBP-OsNLP3 was “binds”.
